Test results taken from publication PMC4736712, “Direct α-synuclein promoter transactivation by the tumor suppressor p53”.

B1: alpha-syn promoter probe (p53 half-site) (dsDNA)
DNA 1: CCTTTCGCTGGAGACATGCCCTTCCATCCTGTCAAAGCCC
DNA 2: GGGCTTTGACAGGATGGAAGGGCATGTCTCCAGCGAAAGG
B2: unlabeled specific competitor (comp-sp) (dsDNA)
DNA 1: B1 DNA 1
DNA 2: B1 DNA 2

Assays:
[1] = target: T1, p53 (wild-type recombinant, p53r) (UniProt P04637 1-393); test: EMSA; 200 ng p53, 20 fmol probe; shift blocked by anti-p53 pab421 or DO1; 1X binding buffer (Promega), 100 ng poly(dI-dC), 10 mM DTT, 1 mg/ml BSA, 4 °C, 30 min; 5% native PAGE at 4 °C; salt and pH not stated; conditions: protein: commercial; chain copies: 4; label: 5' biotin; blunt
[2] = target: T1, p53 (wild-type recombinant, p53r); test: competition EMSA; 4 pmol cold competitor (200-fold excess) blocks shift of N1; 1X binding buffer (Promega), 100 ng poly(dI-dC), 10 mM DTT, 1 mg/ml BSA, 4 °C, 30 min; 5% native PAGE at 4 °C; salt and pH not stated; conditions: protein: commercial; chain copies: 4; blunt

T1 sequence (P04637 whole entry): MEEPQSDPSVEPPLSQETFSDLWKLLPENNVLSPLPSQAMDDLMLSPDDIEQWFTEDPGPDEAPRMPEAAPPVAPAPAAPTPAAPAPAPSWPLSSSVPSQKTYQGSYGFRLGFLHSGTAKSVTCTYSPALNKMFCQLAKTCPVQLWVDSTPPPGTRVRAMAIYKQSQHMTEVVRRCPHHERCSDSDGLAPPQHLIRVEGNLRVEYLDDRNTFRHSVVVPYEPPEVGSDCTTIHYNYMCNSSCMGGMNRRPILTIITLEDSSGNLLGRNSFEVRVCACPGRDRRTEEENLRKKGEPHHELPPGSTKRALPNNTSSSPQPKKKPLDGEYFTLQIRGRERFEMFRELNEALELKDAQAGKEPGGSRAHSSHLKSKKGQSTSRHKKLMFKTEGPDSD

Binder	binding result [1]	binding result [2]
B1	binds	
B2		binds
